Laboratory results published in patent US20240158448A1, “MULTIVALENT NANO-'SELF' PEPTIDES AND USES THEREOF” (THE TRUSTEES OF THE UNIVERSITY OF PENNSYLVANIA, priority 2021, published 2024).

Molecular target: human CD47 expressed on cells (red blood cells, K562 cells, THP-1 macrophages) (human) (UniProt Q08722)
Assay: cell-based or functional assay

B1: mouse anti-human CD47 antibody B6H12 (BD Biosciences) (antibody, from another filing, V domains shown)
VH: EVQLVESGGDLVKPGGSLKLSCAASGFTFSGYGMSWVRQTPDKRLEWVATITSGGTYTYYPDSVKGRFTISRDNAKNTLYLQIDSLKSEDTAIYFCARSLAGNAMDYWGQGTSVTVSS
VL: DIVMTQSPATLSVTPGDRVSLSCRASQTISDYLHWYQQKSHESPRLLIKFASQSISGIPSRFSGSGSGSDFTLSINSVEPEDVGVYYCQNGHGFPRTFGGGTKLEIK
% THP-1 macrophages phagocytosing opsonized RBCs: 30%
